We go through three substances from patent US20240132573A1.

Among the targets are Activated protein C (UniProt P04070); Human αFXIIa (Human) (UniProt P00748); Plasma kallikrein (UniProt P03952); Plasmin (UniProt P00747); Thrombin (UniProt P00734).
What all share (assay): cell-based or functional assay
For a further assay, the target named is T1, Human βFXIIa (Human) (UniProt P00748).
T1 sequence (looked up): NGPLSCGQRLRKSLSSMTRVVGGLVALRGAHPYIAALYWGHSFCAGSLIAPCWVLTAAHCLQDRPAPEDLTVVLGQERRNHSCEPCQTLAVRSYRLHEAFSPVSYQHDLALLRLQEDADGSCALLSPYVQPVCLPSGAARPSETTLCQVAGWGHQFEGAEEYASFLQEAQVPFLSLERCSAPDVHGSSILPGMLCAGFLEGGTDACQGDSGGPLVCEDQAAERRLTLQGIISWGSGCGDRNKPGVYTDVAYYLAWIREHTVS

Chain of Plasma kallikrein (P03952 20-638 limits assumed): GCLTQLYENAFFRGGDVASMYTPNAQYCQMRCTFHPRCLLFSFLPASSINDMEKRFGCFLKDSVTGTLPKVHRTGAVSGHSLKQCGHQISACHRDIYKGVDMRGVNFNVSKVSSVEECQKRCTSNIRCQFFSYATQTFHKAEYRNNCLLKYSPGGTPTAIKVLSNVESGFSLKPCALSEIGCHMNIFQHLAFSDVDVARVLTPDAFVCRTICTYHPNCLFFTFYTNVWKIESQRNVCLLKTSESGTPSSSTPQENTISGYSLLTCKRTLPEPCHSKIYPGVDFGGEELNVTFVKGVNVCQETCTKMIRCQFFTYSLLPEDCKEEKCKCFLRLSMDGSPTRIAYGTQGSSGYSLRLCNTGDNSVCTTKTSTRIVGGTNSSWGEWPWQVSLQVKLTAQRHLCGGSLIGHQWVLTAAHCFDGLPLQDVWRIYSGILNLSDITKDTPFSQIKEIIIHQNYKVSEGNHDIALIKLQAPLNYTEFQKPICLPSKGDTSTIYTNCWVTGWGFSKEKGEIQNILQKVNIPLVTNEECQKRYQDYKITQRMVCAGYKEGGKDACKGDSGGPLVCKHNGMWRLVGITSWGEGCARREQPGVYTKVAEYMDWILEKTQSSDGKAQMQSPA
Chain of Plasmin (P00747 97-810 limits assumed): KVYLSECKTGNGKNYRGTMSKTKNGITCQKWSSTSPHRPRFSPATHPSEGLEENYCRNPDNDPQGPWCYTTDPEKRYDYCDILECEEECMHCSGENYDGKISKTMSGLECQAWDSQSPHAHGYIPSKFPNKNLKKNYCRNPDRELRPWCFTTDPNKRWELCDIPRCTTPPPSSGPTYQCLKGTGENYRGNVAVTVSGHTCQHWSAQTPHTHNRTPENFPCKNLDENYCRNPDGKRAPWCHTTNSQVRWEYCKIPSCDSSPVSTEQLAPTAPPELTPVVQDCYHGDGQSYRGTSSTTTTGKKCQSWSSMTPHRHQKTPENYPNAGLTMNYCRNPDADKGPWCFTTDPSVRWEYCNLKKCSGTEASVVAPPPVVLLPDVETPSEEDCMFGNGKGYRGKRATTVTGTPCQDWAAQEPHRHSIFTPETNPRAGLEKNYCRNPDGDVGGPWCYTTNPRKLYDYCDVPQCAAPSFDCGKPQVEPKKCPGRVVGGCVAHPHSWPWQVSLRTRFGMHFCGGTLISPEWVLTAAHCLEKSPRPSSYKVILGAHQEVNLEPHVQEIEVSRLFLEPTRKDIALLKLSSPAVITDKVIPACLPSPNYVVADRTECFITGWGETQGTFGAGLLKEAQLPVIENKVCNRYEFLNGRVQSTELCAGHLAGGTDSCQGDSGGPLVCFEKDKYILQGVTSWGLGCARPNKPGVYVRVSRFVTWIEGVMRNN
Chain of Activated protein C (P04070 43-461): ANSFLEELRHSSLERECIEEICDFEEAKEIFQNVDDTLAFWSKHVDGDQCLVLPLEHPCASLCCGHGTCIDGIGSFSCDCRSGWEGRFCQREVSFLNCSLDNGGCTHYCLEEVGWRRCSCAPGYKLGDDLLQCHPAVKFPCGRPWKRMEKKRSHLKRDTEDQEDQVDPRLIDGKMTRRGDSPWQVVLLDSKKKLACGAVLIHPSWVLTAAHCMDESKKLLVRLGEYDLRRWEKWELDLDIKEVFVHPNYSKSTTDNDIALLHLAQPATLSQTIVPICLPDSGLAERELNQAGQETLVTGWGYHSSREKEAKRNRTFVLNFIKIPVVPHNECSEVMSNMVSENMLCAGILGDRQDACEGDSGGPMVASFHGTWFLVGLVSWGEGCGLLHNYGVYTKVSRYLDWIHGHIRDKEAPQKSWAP

In the assay with Activated protein C, “α1-Antitrypsin variant SVRKox* (from UniProt P01009 25-418)” yielded a percentage inhibition, average (S2366 conversion) of 4%. Also, the percentage inhibition, average (L2120 conversion) with Human αFXIIa (Human) was found to be 2%; with Human βFXIIa (Human), 0%; with Plasma kallikrein it was 91%. The percentage inhibition, average (I1390 conversion) in the assay with Plasmin was determined as 97%. This substance had a percentage inhibition, average (I1140 conversion) with Thrombin of 1%.

Substance “α1-Antitrypsin variant SVTRox* (from UniProt P01009 25-418)” registered a percentage inhibition, average (S2366 conversion) in the assay with Activated protein C of 49%. In addition, the results for the percentage inhibition, average (L2120 conversion) with Human αFXIIa (Human), with Human βFXIIa (Human) and with Plasma kallikrein were 47%, 39% and 99%, respectively. The percentage inhibition, average (I1390 conversion) in the assay with Plasmin amounted to 97%. The substance further had a percentage inhibition, average (I1140 conversion) with Thrombin of 7%.

On to “α1-Antitrypsin variant SVVKox* (from UniProt P01009 25-418)”, for which the percentage inhibition, average (S2366 conversion) with Activated protein C turned out to be 8%. Moreover, the results for the percentage inhibition, average (L2120 conversion) with Human αFXIIa (Human), in the assay with Human βFXIIa (Human) and with Plasma kallikrein were 4%, 2% and 55%, respectively. Besides, the percentage inhibition, average (I1390 conversion) in the assay with Plasmin is 95%. For the same substance, the percentage inhibition, average (I1140 conversion) with Thrombin worked out at 6%.
